Substitutions are numbered along the chain they refer to. Names and notes keep the numbering of the source. Each block holds one molecule with its values, some of them ahead of it.
Assays:
[1] = molecular target: T1, IPDOKF1 (isophthalate dioxygenase, IPDO) (Comamonas testosteroni, UniProt B7WRK8); assay: X-ray co-crystal structure, […] Å; format: binding; conditions: co-crystallized with 5 mM isophthalate, 0.1 M Tris-HCl pH 7.0; active site near mononuclear iron
T1 construct: gene CtesDRAFT_PD2139; 424 residues per protomer; ~50 kDa monomer, ~150 kDa trimer; primers encode N-terminus MNKEMSE and C-terminus PVFSL; Rieske [2Fe-2S]; C69/H71/C88/H91, Fe H177/H182/D337; assayed with separate reductase IPDRKF1
T1 sequence (B7WRK8 1-424): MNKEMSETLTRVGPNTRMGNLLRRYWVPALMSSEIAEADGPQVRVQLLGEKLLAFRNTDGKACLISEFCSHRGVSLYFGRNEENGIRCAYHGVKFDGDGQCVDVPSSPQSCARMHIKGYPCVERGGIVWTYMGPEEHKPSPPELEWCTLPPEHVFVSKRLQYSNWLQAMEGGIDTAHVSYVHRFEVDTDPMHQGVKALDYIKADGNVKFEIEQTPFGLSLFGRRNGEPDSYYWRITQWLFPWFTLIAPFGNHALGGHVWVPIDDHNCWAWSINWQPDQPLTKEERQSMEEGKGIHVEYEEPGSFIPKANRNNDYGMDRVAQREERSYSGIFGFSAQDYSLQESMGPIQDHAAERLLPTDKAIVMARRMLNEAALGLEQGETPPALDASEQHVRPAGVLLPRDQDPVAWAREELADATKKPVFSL

[2] = molecular target: isophthalate dioxygenase from Comamonas testosteroni KF1 (IPDOKF1) (Comamonas testosteroni KF1); assay: SEC; gel filtration on a Superdex 200 column; peaks at 62 mL (trimer, ~150 kDa) and 73 mL (monomer, ~50 kDa)
[3] = molecular target: isophthalate dioxygenase from Comamonas testosteroni KF1 (IPDOKF1) (Comamonas testosteroni KF1); assay: crystal structure; apo IPDOKF1 at 2.96 Å and isophthalate complex at 3.3 Å, space group P 2_(1) 3, one monomer per asymmetric unit; the trimer arises by the threefold axis
purified protein = substrate: O=C(O)c1cccc(C(=O)O)c1; assay: purified protein; conditions: with reductase IPDRKF1, 1 mM NAD(P)H, 100 µM Fe(NH4)2(SO4)2, air-saturated 50 mM Tris, 25 °C, pH 7.5 in table footnote but pH 8.0 in methods
[4] = substrate: O=C(O)c1ccc(C(=O)O)cc1; assay: O2 consumption, Clark-type oxygen electrode; format: biochemical, Comamonas testosteroni; conditions: with reductase IPDRKF1, 1 mM NAD(P)H, 100 µM Fe(NH4)2(SO4)2, air-saturated 50 mM Tris, 25 °C, pH 7.5 in table footnote but pH 8.0 in methods
[5] = substrate: O=C(O)c1ccccc1C(=O)O; assay: O2 consumption, Clark-type oxygen electrode; format: biochemical, Comamonas testosteroni; conditions: with reductase IPDRKF1, 1 mM NAD(P)H, 100 µM Fe(NH4)2(SO4)2, air-saturated 50 mM Tris, 25 °C, pH 7.5 in table footnote but pH 8.0 in methods

Molecule: O=C(O)c1cccc(C(=O)O)c1 [IPA, isophthalate]
X-ray co-crystal structure, 3.3 Å [1]: co-crystallized IPDOKF1 with its substrate and determined the structure of the isophthalate-bound complex

stoichiometry N [2]: 3 | stoichiometry N [3]: 3
Molecule: isophthalate dioxygenase from Comamonas testosteroni KF1 (IPDOKF1) (enzyme)

B1: IPDOKF1 (isophthalate dioxygenase, IPDO) (Comamonas testosteroni KF-1) (protein)
chain: T1 sequence (B7WRK8 1-424)
Km (purified protein): 31 ± 7 µM | kcat (purified protein): 4.9 s⁻¹ | kcat/Km (purified protein): 160000 M⁻¹ s⁻¹

B2: IPDOKF1 (isophthalate dioxygenase, IPDO) (Comamonas testosteroni KF-1; F249H/V178A) (protein)
chain: T1 sequence (B7WRK8 1-424) with V178A, F249H
notes: 424 residues per protomer; ~50 kDa monomer, ~150 kDa trimer; primers encode N-terminus MNKEMSE and C-terminus PVFSL; Rieske [2Fe-2S]; C69/H71/C88/H91, Fe H177/H182/D337; assayed with separate reductase IPDRKF1
Km (purified protein): 32 ± 8 µM | kcat (purified protein): 4.8 s⁻¹ | kcat/Km (purified protein): 148000 M⁻¹ s⁻¹ | Km [4]: 95 ± 11 µM | kcat [4]: 4.9 ± 0.2 s⁻¹ | kcat/Km [4]: 51000 ± 6000 M⁻¹ s⁻¹ | Km [5]: 91 ± 16 µM | kcat [5]: 4 ± 0.2 s⁻¹ | kcat/Km [5]: 44000 ± 8000 M⁻¹ s⁻¹

Reference: PMC12445078, “Structure-guided engineering of an aromatic ring-hydroxylating dioxygenase for broad-spectrum phthalate degradation” (Journal of Bacteriology, 2025)
